Experimental findings from patent US20040009911A1, “Hepsin substrates and prodrugs” (IRM, LLC, priority 2002, published 2004) are described below.

ACC/ACMC = fluorogenic leaving group

Experiment [1] deals with T1, recombinant hepsin (Homo sapiens, UniProt P05981). Description: Activation of pro-uPA by hepsin, monitored with uPA substrate GTAR-acc. In kind it is biochemical. Also noted: made in house. The note with it: 1 nM recombinant hepsin, 100 μM GTAR-acc; FIG. 10 (squares). As to the method:
To test whether hepsin is capable of activating pro-uPA (and thereby potentially initiating this proteolytic cascade), uPA was screened through a coumarin-based substrate library and a substrate was designed to monitor uPA proteolytic activity. The substrate designed to monitor uPA activity is Acetyl-Gly-Thr-Ala-Arg-[7-amino-4-carbomoylcoumarin] (GTAR-acc). 2 μM of pro-uPA was incubated with 1 nM of recombinant hepsin and 100 μM of GTAR-acc.
Target sequence in this assay (P05981 whole entry): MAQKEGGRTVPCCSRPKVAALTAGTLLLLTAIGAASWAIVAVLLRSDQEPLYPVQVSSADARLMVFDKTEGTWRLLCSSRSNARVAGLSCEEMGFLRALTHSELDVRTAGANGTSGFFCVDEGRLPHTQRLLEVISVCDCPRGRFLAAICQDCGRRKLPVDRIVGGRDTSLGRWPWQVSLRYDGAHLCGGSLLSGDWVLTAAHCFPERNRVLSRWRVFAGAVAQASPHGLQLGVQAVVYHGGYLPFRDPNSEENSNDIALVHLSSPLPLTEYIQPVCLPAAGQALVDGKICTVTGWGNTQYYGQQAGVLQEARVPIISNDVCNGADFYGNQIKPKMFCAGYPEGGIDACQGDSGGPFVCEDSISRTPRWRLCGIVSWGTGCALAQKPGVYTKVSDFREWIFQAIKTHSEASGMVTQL

Experiment [2] concerns the target T1, recombinant hepsin. Description: Cleavage of fluorogenic tetrapeptide substrates by recombinant hepsin expressed in insect cells. Type of experiment: biochemical. Details: Hep136 (covering the prodomain and the catalytic domain); amino acids 46-417; honeybee melittin secretion signal (Mel) (N); made in house; host or cells: SP9 (Sf9) insect cells, baculovirus, pFastBac1. Particulars: with and without a histidine tag. As to the method:
SP9 cells were infected with recombinant virus at a MOI of 5-10 and the activity of hepsin in the supernatant was monitored by the hydrolysis of a fluorogenic peptide, KRLR-ACC. […] To determine the optimal expression time, activity was monitored for 72 hours after infection.
The activity of hepsin expressed and purified as described above was tested using the following substrates, which were synthesized based on the substrate specificity profile from the positional scanning libraries described above: Acetyl-Pro-Arg-Leu-Arg-ACC/ACMC and Acetyl-Lys-Arg-Leu-Arg-ACC/ACMC.
Target sequence in this assay (P05981 46-417): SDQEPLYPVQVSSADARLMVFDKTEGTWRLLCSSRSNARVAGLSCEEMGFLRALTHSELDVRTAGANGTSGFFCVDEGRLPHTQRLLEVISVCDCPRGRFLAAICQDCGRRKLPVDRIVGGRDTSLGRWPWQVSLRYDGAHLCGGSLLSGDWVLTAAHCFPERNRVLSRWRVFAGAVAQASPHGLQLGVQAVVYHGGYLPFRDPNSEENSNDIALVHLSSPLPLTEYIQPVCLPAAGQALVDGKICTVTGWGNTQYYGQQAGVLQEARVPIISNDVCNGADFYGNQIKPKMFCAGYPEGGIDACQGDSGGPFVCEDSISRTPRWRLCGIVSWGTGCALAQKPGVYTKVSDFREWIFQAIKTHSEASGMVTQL

On to “Acetyl-Gly-Thr-Ala-Arg-[7-amino-4-carbomoylcoumarin] (Ac-GTAR-{7‑amino‑4‑carbamoylcoumarin}) [GTAR-acc]”, for which the “cleavage of GTAR-acc by hepsin” value in the experiment with recombinant hepsin [1] is “only marginally cleaves”. On to “Acetyl-Lys-Arg-Leu-Arg-ACC/ACMC (Ac-KRLR-{ACC/ACMC}; also: C-terminal ACC/ACMC fluorophore) [N-acetyl tetrapeptide hepsin substrate with C-terminal coumarin fluorophore (ACC or ACMC)]”, for which the “cleavage by recombinant hepsin” value in the experiment with recombinant hepsin [2] was “efficiently cleaved”. Still for that read-out and setting: under “Acetyl-Pro-Arg-Leu-Arg-ACC/ACMC (Ac-PRLR-{ACC/ACMC}; also: C-terminal ACC/ACMC fluorophore) [N-acetyl tetrapeptide hepsin substrate with C-terminal coumarin fluorophore (ACC or ACMC)]” stands “efficiently cleaved”.
